Measurements: patent US20250129404A1, “RAPID, COLORIMETRIC ASSAY TO DETECT ACETYLTRANSFERASE ACTIVITY IN BIOLOGICAL SAMPLES” (THE FEINSTEIN INSTITUTES FOR MEDICAL RESEARCH, priority 2023, published 2025)

T1: recombinant human ChAT (rChAT) (Homo sapiens, UniProt P28329)
T1 construct: recombinant human ChAT corresponding to residue 119-748; His tag (N-histidine tag) (N); made in house; host or cells: E. coli BL21-Gold (DE3)
T1 sequence (P28329 119-748): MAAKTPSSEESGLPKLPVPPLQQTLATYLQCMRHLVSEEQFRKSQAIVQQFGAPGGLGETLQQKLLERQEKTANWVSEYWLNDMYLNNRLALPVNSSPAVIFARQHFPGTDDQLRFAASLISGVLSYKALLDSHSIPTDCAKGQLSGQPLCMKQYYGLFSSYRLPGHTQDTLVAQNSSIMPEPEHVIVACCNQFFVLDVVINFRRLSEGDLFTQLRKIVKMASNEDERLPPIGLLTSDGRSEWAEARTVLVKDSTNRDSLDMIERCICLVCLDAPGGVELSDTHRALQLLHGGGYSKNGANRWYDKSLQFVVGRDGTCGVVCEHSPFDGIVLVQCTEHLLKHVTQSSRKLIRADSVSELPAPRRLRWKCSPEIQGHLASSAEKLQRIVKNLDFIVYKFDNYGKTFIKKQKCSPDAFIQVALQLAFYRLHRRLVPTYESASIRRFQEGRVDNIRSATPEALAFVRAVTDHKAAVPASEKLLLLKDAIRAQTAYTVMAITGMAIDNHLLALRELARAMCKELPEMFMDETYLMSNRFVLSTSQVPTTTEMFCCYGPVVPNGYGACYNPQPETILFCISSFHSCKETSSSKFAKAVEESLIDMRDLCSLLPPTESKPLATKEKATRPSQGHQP

T2: recombinant human ChAT (rChAT), substrate choline (Homo sapiens, UniProt P28329)
T2 construct: recombinant human ChAT corresponding to residue 119-748; His tag (N-histidine tag) (N); made in house; host or cells: E. coli BL21-Gold (DE3)
T2 sequence (P28329 119-748): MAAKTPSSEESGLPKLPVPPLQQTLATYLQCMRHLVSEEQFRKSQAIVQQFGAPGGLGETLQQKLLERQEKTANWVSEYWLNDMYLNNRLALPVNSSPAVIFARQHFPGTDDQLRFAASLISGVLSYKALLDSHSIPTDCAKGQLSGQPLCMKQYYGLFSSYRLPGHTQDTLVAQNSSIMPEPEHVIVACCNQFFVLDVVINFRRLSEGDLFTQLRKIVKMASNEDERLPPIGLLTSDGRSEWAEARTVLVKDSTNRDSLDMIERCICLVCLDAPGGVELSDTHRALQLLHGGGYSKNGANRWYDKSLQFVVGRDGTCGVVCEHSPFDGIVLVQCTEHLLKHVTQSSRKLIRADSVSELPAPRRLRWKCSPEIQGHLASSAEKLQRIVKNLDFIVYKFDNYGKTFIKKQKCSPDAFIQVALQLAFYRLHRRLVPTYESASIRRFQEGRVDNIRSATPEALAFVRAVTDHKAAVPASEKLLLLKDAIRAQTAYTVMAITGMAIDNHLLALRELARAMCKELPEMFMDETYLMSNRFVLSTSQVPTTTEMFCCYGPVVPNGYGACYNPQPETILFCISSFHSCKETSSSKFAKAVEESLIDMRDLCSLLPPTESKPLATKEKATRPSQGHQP


Tests used:
[1] = target: T1, recombinant human ChAT (rChAT); assay: Choline acetyltransferase (ChAT) colorimetric activity assay; assay type: biochemical
Description: Recombinant ChAT protein and ChAT PEGylation. All recombinant ChAT (rChAT) protein used was produced as described previously (10). Briefly, recombinant human ChAT corresponding to residue 119-748 (EC2.3.1.6, UnitProt 28329-3) with a N-histidine tag was expressed in E. coli BL21-Gold (DE3) cells and purified using high affinity Ni-charged columns. The purified recombinant ChAT was dialyzed at 4° C. in buffer containing 0.2×PBS, 10% glycerol and 0.5 mM TCEP (tris(2-carboxyethyl) phosphine), and subjected to extensive Triton X-114 extraction to remove contaminating endotoxins. After purification, PEGylation was carried out using MS (PEG) 12 reagent to extend the plasma half-life of the enzyme (10). Following PEGylation, the protein was dialyzed in buffer and once again extracted with Triton-X-114 to remove contaminating endotoxins. A Bradford protein assay (Bio-Rad) was used to determine rChAT protein concentration. Commercial recombinant ChAT protein was purchased from My BioSource.
Choline Acetyltransferase activity assay. An assay was developed to measure ChAT activity using an adapted version of the colorimetric assay (Reactions 1-3) (13).
Briefly, biological samples and choline chloride standards are diluted in assay buffer (containing 10 mM Tris-HCl, 150 mM NaCl, 1 mM EDTA, and 0.05% Triton X-100). 100 μl of each standard and 40 μl of each sample are added in triplicate to a 96-well plate. […] The assay is developed by addition of 150 μL of 3′3′5′5′ Tetramethylbenzidine (TMB) to all wells, and the plate is immediately analyzed spectrophotometrically at 650 nm. ChAT Activity is determined from the interpolated amount of choline depleted during the reaction, divided by the reaction time and sample volume, and multiplied by the sample dilution factor (Equation 1). In all biological samples, ChAT activity is normalized to total protein concentration, measured using Bradford protein assay (Bio-Rad) and is represented as nmol/min/mg of total protein. […]

[2] = tested on: TNF; assay: Acute endotoxemia (LPS), TNF by ELISA; assay type: in vivo, mouse; settings: 1 mg/kg i.p. 30 min prior to 0.3 mg/kg LPS, 90 min after LPS
Description: Endotoxemia. Lipopolysaccharide (LPS, Escherichia coli 0111: B4; Sigma) was sonicated for 30 min, vortexed and administered intraperitoneally (LD50 7 mg/kg). Animals were euthanized by CO2 asphyxiation 90 min post-LPS administration and blood was collected by cardiac puncture using heparinized syringes. Blood samples were kept on ice and centrifuged for 10 minutes at 5000 g. Plasma TNF levels were quantified using a commercially available ELISA (Invitrogen). Plasma total protein concentration was determined using a Bradford Protein Assay (Bio-Rad). Sepsis scores were determined at respective timepoints up to 72 hours following endotoxin administration as described previously (19), where a maximum score of 28 per mouse denotes the greatest clinical sickness score.
Administration of PEG-ChAT and Anti-ChAT Neutralizing Antibody. Pegylated recombinant ChAT protein or a custom made monoclonal anti-ChAT antibody (GenScript) was administered intraperitoneally at a 1 mg/kg dose 30 minutes prior to LPS administration. Acute endotoxemia was induced with a dose of 0.3 mg/kg LPS. Animals were returned to their home cages and euthanized 90 minutes after LPS administration.

[3] = tested on: DSS-induced experimental colitis in C57Bl/6 male mice; assay: DSS colitis model; assay type: in vivo, mouse; settings: for histological damage (inflammation severity, crypt damage, extent of inflammation): blinded H&E scoring, day 14 (FIG. 4E-F)
Description: DSS Colitis Model. DSS (DSS salt, colitis grade (MW: 36000-50000), MP Biomedicals, CA) was added to the drinking water in a final concentration of 3% (wt/vol) for 7 days. The water was changed to regular water on day 8 and maintained till the end of the experiment. Survival and the disease activity index (DAI) were evaluated daily in a blinded manner. On day 14, mice were euthanized under CO2 asphyxiation and blood and tissue were collected. Colons were removed, cleaned, and sectioned longitudinally. The luminal contents were removed with cold phosphate buffered saline (PBS). Starting from the most distal end (rectum) the colon was rolled with luminal side facing upward, resulting in a “Swiss roll” with the distal end in the center and the proximal colon in the outer side of the roll. The Swiss roll was held together with a small pin and placed in 10% buffered formalin overnight at 4° C. The fixed tissue was then embedded in paraffin, sectioned at 10 μm and stained with hematoxylin and eosin. Histological analysis was carried out in a blinded manner by three independent researchers. The degree of colon inflammation was scored under the light microscope (Zeiss, Germany) using the following criteria: inflammation severity (0—none; 1—mild; 2—moderate; 3—severe), inflammation extent (0—none; 1—mucosal; 2—mucosal and submucosal; 3—transmural), Crypt damage (0—none; 1—basal, ⅓ damaged; 2—basal, ⅔/damaged; 3—crypt loss), damage distribution (0-0%; […]; 3-51-75%; 4-76-100%). Each mouse tissue was scored over 6 different sites of the colon. Serum cytokine levels (IL-6, TNFα and MCP-1) were analyzed using mouse V-Plex Biomarker Group 1 array, and the assay was performed according to the manufacturer's instructions.

[4] = target: T2, recombinant human ChAT (rChAT), substrate choline; assay: Michaelis-Menten kinetic constants, Coenzyme A detection assay; assay type: biochemical; settings: rChAT 2 μg/mL; Michaelis-Menten / Lineweaver Burke (FIG. 7C-D)
Description: Determination of Michaelis-Menten kinetic constants. To determine the Km constants for rChAT samples, a previously published Coenzyme A detection assay was used (12). Briefly, Coenzyme A standard was diluted in assay buffer. 100 μl of each standard and 40 μl of each sample was added to the 96-well plate in triplicate. 60 μl of Cocktail A was added to all sample wells. Immediately, 50 μl of Cocktail B was added to all sample and standard wells. The plate was immediately quantitated spectrophotometrically at 324 nm every 30 seconds for 30 minutes. Enzyme velocity was quantified as CoA formed (nmol/min/ml).
Data analysis and statistics. Data were analyzed using Graphpad Prism 9.0 software using two-tailed unpaired […] for comparisons between 2 groups or two-way ANOVA or mixed-effects model followed with Šídák's multiple comparisons test for comparisons of 3 or more groups. Michaelis Menten kinetic constants were determined using the Michaelis-Menten approximation to calculate Km and Vmax from a velocity vs. substrate relationship. Correlation coefficients were calculated using a nonparametric Spearman Correlation. For all analyses, P≤0.05 was considered statistically significant.

[5] = tested on: hypertensive animals; settings: background statement; cited from earlier work

Molecule | IC50 ([1]; preincubation of 0.4 mg/mL rChAT with inhibitor, room temperature 30 minutes (FIG. 7E)) | serum TNF vs vehicle [2] | spleen TNF vs vehicle [2] | serum TNF vs vehicle ([2]; listed as PEG-ChAT antibody) | disease activity index (DAI) vs vehicle ([3]; 1 mg/kg i.p. twice daily from day 7, from day 9 (FIG. 4C)) | severity of colitis ([3]; 1 mg/kg i.p. twice daily from day 7 to day 14) | weight loss vs vehicle ([3]; 1 mg/kg i.p. twice daily from day 7 to day 14 (FIG. 4B)) | histological damage (inflammation severity, crypt damage, extent of inflammation) [3] | colon length ([3]; day 14 (FIG. 4D)) | circulating IL-6 vs vehicle ([3]; serum, day 14 (FIG. 5A)) | circulating TNF vs vehicle ([3]; serum, day 14 (FIG. 5B)) | circulating MCP-1 vs vehicle ([3]; serum, day 14 (FIG. 5C)) | Vmax [4] | detected activity after thermal denaturing, in comparison to native preparation ([1]; 70° C. for 30 minutes (FIG. 7F), P<0.01) | enzymatic activity compared to a commercially available ChAT ([1]; FIG. 7B, P<0.01) | blood pressure [5]
C[N+](C)(C)CCC(=O)c1cccc2ccccc12 [alpha-NETA, reference compound] | 148 nM | – | – | – | – | – | – | – | – | – | – | – | – | – | – | –
PEG-ChAT: recombinant ChAT PEGylated using MS (PEG) 12 reagent (conjugate, UniProt P28329 1-748, looked up, PEGylated with MS(PEG)12, recombinant ChAT PEGylated using MS (PEG) 12 reagent) Choline O-acetyltransferase: MGLRTAKKRGLGGGGKWKREEGGGTRGRREVRPACFLQSGGRGDPGDVGGPAGNPGCSPHPRAATRPPPLPAHTPAHTPEWCGAASAEAAEPRRAGPHLCIPAPGLTKTPILEKVPRKMAAKTPSSEESGLPKLPVPPLQQTLATYLQCMRHLVSEEQFRKSQAIVQQFGAPGGLGETLQQKLLERQEKTANWVSEYWLNDMYLNNRLALPVNSSPAVIFARQHFPGTDDQLRFAASLISGVLSYKALLDSHSIPTDCAKGQLSGQPLCMKQYYGLFSSYRLPGHTQDTLVAQNSSIMPEPEHVIVACCNQFFVLDVVINFRRLSEGDLFTQLRKIVKMASNEDERLPPIGLLTSDGRSEWAEARTVLVKDSTNRDSLDMIERCICLVCLDAPGGVELSDTHRALQLLHGGGYSKNGANRWYDKSLQFVVGRDGTCGVVCEHSPFDGIVLVQCTEHLLKHVTQSSRKLIRADSVSELPAPRRLRWKCSPEIQGHLASSAEKLQRIVKNLDFIVYKFDNYGKTFIKKQKCSPDAFIQVALQLAFYRLHRRLVPTYESASIRRFQEGRVDNIRSATPEALAFVRAVTDHKAAVPASEKLLLLKDAIRAQTAYTVMAITGMAIDNHLLALRELARAMCKELPEMFMDETYLMSNRFVLSTSQVPTTTEMFCCYGPVVPNGYGACYNPQPETILFCISSFHSCKETSSSKFAKAVEESLIDMRDLCSLLPPTESKPLATKEKATRPSQGHQP | – | significantly attenuates | decrease | significantly ameliorated | significant reduction | significantly reduces | significant reduction | attenuates | significantly improves | significantly reduced | significantly reduced | significantly reduced | – | – | – | –
rChAT: recombinant human ChAT residue 119-748 with N-histidine tag, expressed in E. coli (protein, UniProt P28329 1-748, looked up) Choline O-acetyltransferase: MGLRTAKKRGLGGGGKWKREEGGGTRGRREVRPACFLQSGGRGDPGDVGGPAGNPGCSPHPRAATRPPPLPAHTPAHTPEWCGAASAEAAEPRRAGPHLCIPAPGLTKTPILEKVPRKMAAKTPSSEESGLPKLPVPPLQQTLATYLQCMRHLVSEEQFRKSQAIVQQFGAPGGLGETLQQKLLERQEKTANWVSEYWLNDMYLNNRLALPVNSSPAVIFARQHFPGTDDQLRFAASLISGVLSYKALLDSHSIPTDCAKGQLSGQPLCMKQYYGLFSSYRLPGHTQDTLVAQNSSIMPEPEHVIVACCNQFFVLDVVINFRRLSEGDLFTQLRKIVKMASNEDERLPPIGLLTSDGRSEWAEARTVLVKDSTNRDSLDMIERCICLVCLDAPGGVELSDTHRALQLLHGGGYSKNGANRWYDKSLQFVVGRDGTCGVVCEHSPFDGIVLVQCTEHLLKHVTQSSRKLIRADSVSELPAPRRLRWKCSPEIQGHLASSAEKLQRIVKNLDFIVYKFDNYGKTFIKKQKCSPDAFIQVALQLAFYRLHRRLVPTYESASIRRFQEGRVDNIRSATPEALAFVRAVTDHKAAVPASEKLLLLKDAIRAQTAYTVMAITGMAIDNHLLALRELARAMCKELPEMFMDETYLMSNRFVLSTSQVPTTTEMFCCYGPVVPNGYGACYNPQPETILFCISSFHSCKETSSSKFAKAVEESLIDMRDLCSLLPPTESKPLATKEKATRPSQGHQP | – | – | – | – | – | – | – | reduced | – | – | – | – | 0.05 Δ CoA (nmol/min) | significantly reduced | significant increase | normalizes
